Patent US9173950B2, “Vitamin D-ghrelin conjugates” (Extend Biosciences, Inc., priority 2012, dated 2015)
Like-named read-outs stand apart in the source and are kept apart here.

Legend:
[1] = human, in vivo; cited from earlier work
[2] = Pharmacokinetics of rGhrelin and rGhrelin-carrier conjugate after IV injection, plasma ELISA; format: in vivo, Sprague Dawley rats; conditions: 0.1 mg/kg IV
Experimental: Pharmacokinetics of rGhrelin (SEQ ID NO:6) or the rGhrelin-carrier conjugate was studied in Sprague Dawley rats. Briefly, 0.1 mg/kg of each molecule was injected separately into the rats by intravenous (IV) injection. Samples of plasma were collected at 30 mins, 60 mins, 120 mins, 240 mins, 360 mins, 24 hrs and 48 hrs. Samples were analyzed using a commercial ELISA kit validated for analyzing rGhrelin from rat plasma (Millipore, Cat. #EZRGRT-91K). […] Thus, ghrelin in a conjugated form is a useful therapeutic for the treatment of ghrelin-responsive diseases such as cachexia, anorexia and frailty in the elderly.

[3] = target: T1, GHS-R (Homo sapiens, UniProt Q92847); assay: Cell-based ghrelin receptor agonist assay, calcium flux (FLIPR) in GHS-R-expressing CHO-K1 cells; conditions: in the presence of 10% serum that contains DBP
T1 construct: host or cells: CHO-K1
T1 sequence (Q92847 whole entry, species assumed): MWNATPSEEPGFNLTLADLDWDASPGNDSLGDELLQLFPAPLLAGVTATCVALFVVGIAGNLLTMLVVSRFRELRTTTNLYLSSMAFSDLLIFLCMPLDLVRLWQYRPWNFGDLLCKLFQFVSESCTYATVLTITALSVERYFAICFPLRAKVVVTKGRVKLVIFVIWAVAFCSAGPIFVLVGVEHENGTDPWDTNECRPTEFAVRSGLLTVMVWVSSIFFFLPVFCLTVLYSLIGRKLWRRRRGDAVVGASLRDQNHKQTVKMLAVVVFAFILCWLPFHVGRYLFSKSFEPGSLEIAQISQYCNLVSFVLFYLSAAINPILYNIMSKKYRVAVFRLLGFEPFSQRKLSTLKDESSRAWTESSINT
Experimental: The test compounds were added to GHS-R-expressing CHO-K1 cell cultures. […] The activity was measured by a calcium flux-based assay developed by GenScript USA Inc. for the FLIPR™ (Fluorescence Imaging Plate Reader) high-throughput cellular screening instrument.
CHO-K1 cells expressing GHS-R were cultured in Ham's F12 supplemented with 10% fetal bovine serum, 500 mg/mL G418 and were passaged in order to maintain optimal cell health. The cells were seeded in a 384-well black-wall, clear-bottom plate at a density of 20,000 cells per well in 20 μL of growth medium 18 hours prior to the assay and maintained at 37° C./5% CO2. […] The intracellular calcium levels in the cells were measured for 20 seconds using the FLIPR™ instrument prior to addition of the test articles. […] Changes in intracellular calcium levels were measured for an additional 100 sec (21 to 120 seconds).
The average value of the 20 second reading (1 to 20 seconds) was calculated as the baseline reading and the relative fluorescent units (ΔRFU) intensity values were calculated with the maximal fluorescent units (21 to 120 seconds) subtracting the average value of baseline reading. […]
The % activation of compound was calculated using the following equation: % activation=(ΔRFUCompound−ΔRFUBackground)/(ΔRFUAgonist control−ΔRFUBackground)}*100% activation was then plotted as a function of the log of the cumulative doses of compounds. […]

[4] = Pharmacokinetics of FGF21 and FGF21-carrier conjugate after SC injection, plasma ELISA; format: in vivo, Sprague Dawley rats; conditions: 0.1 mg/kg SC
Experimental: Pharmacokinetics of FGF21 (SEQ ID NO:3) or the FGF21-carrier conjugate was studied in Sprague Dawley rats. Briefly, 0.1 mg/kg of each molecule was injected separately into the rats by SC injection. Samples of plasma were collected at 30 mins, 60 mins, 120 mins, 240 mins, 360 mins, 24 hrs and 48 hrs. Samples were analyzed using a commercial ELISA kit validated for FGF21 (Millipore, Cat. #EZHFGF21-19K).

Question: Which half-life [1] does the source give for `CCCCCCCC(=O)OC[C@H](NC(=O)[C@H](CO)NC(=O)CN)C(=O)N[C@@H](Cc1ccccc1)C(=O)N[C@@H](CC(C)C)C(=O)N[C@@H](CO)C(=O)N1CCC[C@H]1C(=O)N[C@@H](CCC(=O)O)C(=O)N[C@@H](Cc1cnc[nH]1)C(=O)N[C@@H](CCC(N)=O)C(=O)N[C@@H](CCCNC(=N)N)C(=O)N[C@H](C(=O)N[C@@H](CCC(N)=O)C(=O)N[C@@H](CCC(N)=O)C(=O)N[C@@H](CCCNC(=N)N)C(=O)N[C@@H](CCCCN)C(=O)N[C@@H](CCC(=O)O)C(=O)N[C@@H](CO)C(=O)N[C@@H](CCCCN)C(=O)N[C@@H](CCCCN)C(=O)N1CCC[C@H]1C(=O)N1CCC[C@H]1C(=O)N[C@@H](C)C(=O)N[C@@H](CCCCN)C(=O)N[C@@H](CC(C)C)C(=O)N[C@@H](CCC(N)=O)C(=O)N1CCC[C@H]1C(=O)N[C@@H](CCCNC(=N)N)C(=O)O)C(C)C` [ghrelin] here?
Answer: The half-life was 11 min.

Question: Which half-life ([2]; rat, in vivo, Sprague Dawley rats, plasma, read-out: half-life (WinNonLin) (converted)) does the source give for `CCCCCCCC(=O)OC[C@H](NC(=O)[C@H](CO)NC(=O)CN)C(=O)N[C@@H](Cc1ccccc1)C(=O)N[C@@H](CC(C)C)C(=O)N[C@@H](CO)C(=O)N1CCC[C@H]1C(=O)N[C@@H](CCC(=O)O)C(=O)N[C@@H](Cc1c[nH]cn1)C(=O)N[C@@H](CCC(N)=O)C(=O)N[C@@H](CCCCN)C(=O)N[C@@H](C)C(=O)N[C@@H](CCC(N)=O)C(=O)N[C@@H](CCC(N)=O)C(=O)N[C@@H](CCCNC(=N)N)C(=O)N[C@@H](CCCCN)C(=O)N[C@@H](CCC(=O)O)C(=O)N[C@@H](CO)C(=O)N[C@@H](CCCCN)C(=O)N[C@@H](CCCCN)C(=O)N1CCC[C@H]1C(=O)N1CCC[C@H]1C(=O)N[C@@H](C)C(=O)N[C@@H](CCCCN)C(=O)N[C@@H](CC(C)C)C(=O)N[C@@H](CCC(N)=O)C(=O)N1CCC[C@H]1C(=O)N[C@@H](CCCNC(=N)N)C(=O)N[C@@H](CS)C(=O)O` [rGhrelin, reference compound] here?
Answer: The half-life was 22.2 min.

Question: With “rGhrelin-carrier conjugate: Rat ghrelin peptide (SEQ ID NO:6) conjugated via free cysteine to the Vitamin D3-PEG-maleimide carrier of Example 1 (GSSFLSPEHQKAQQRKESKKPPAKLQPRC; Vitamin D3-PEG-maleimide carrier)” as the molecule, how does the “half-life (WinNonLin)” value ([2]; Sprague Dawley rats, plasma) read?
Answer: The value was 480 min.

Question: What about the “improvement in half-life vs rGhrelin” value ([2]; rats) of the same molecule?
Answer: The value was 22 fold.

Question: And the “interference in receptor binding and activation” value [3]?
Answer: The value was “No interference”.

B1: FGF21-carrier conjugate: Modified FGF21 (SEQ ID NO:3) conjugated through its free cysteine to the Vitamin D3-PEG-maleimide carrier of Example 1 (conjugate)
chain: MGSHHHHHHSSGENLYFQGHPCPDSSPLLQFGGQVRQRYLYTDDAQQTEAHLEIREDGTVGGAADQSPESLLQLKALKPGVIQILGVKTSRFLCQRPDGALYGSLHFDPEACSFRELLLEDGYNVYQSEAHGLPLHLPGNKSPHRDPAPRGPARFLPLPGLPPALPEPPGILAPQPPDVGSSDPLSMVEPSQGRSPSYASP
modifications: Vitamin D3-PEG-maleimide carrier
Question: Which “area under the curve (AUC)” value ([4]; Sprague Dawley rats, plasma) does the source give for B1 here?
Answer: Its value is 1047.98 ng·h/mL.

Question: And the “average Cmax” value ([4]; Sprague Dawley rats, plasma)?
Answer: Its value is 143.526 ng/mL.

Question: What about the “increase in bioavailability (ratio of average Cmax, conjugate vs FGF21)” value ([4]; rats) of the same molecule?
Answer: Its value is 380 fold.

Question: What about the “increase in drug exposure (ratio of mean AUC, conjugate vs FGF21)” value ([4]; rats) of the same molecule?
Answer: Its value is 675 fold.
